For data set [1], the target named is LacA-Zif268 + PE1A-LacB (split beta-lactamase SEER pair) (artificial, UniProt O73693; SEQ:189-286,SEQ:1-88). Description: split beta-lactamase reassembly on cognate target.
Data set [2] deals with NGFP-Zif268 + CGFP-MBD2 (human MBD2 residues 147-215; mCpG-SEER pair) (artificial, UniProt P08046;Q9UBB5 P08046:333-419,Q9UBB5:147-215). Description: split GFP reassembly; used as reference (relative fluorescence 1) for specificity set; Zn buffer, 4 C.

B1: Zif-0-PE1A (structured_DNA)
DNA: GGCGTTATTTATCGCCCACGCGGGTTTTCCCGCGTGGGCGATAAATAACGCC
On to B1, for which, in data set [1], the binding result is “binds”.

B2: mCpG-Zif268 (dsDNA)
DNA 1: GCGTACGTAGGACGATACGCCCACGCCACCG
DNA 2: CGGTGGCGTGGGCGTATCGTCCTACGTACGC
modifications: 5mC at the CpG on both strands (GTAmCGTA)
For the molecule B2, in data set [2], the binding result is given as “binds”.

The values above are taken from patent US20090068164 (published 2009).
